Measured values: the DeepSol protein solubility set

Experiment: soluble on expression in E. coli; label from the status in PepcDB or PDB records

Sequence	soluble on expression in E. coli
MGSDKIHHHHHHMSNKPFFYQDPFPLKKDDTEYYLLTSEHVSVAEFEGQEILKVAPEALTLLARQAFHDASFMLRPAHQQQVADILRDPQASENDKYVALQFLRNSDIAAKGVLPTCQDTGTAIIVGKKGQRVWTGGGDEAALARGVYNTYIEDNLRYSQNAALDMYKEVNTGTNLPAQIDLYSVDGDEYKFLCIAKGGGSANKTYLYQETKALLTPGKLKNYLVDKMRTLGTAACPPYHIAFVIGGTSAEANLKTVKLASAKYYDALPTEGNEHGQAFRDIELEKELLLEAQNLGLGAQFGGKYFAHDIRVIRLPRHGASCPVGMGVSCSADRNIKAKINRDGIWIEKLERNPGKYIPEALRQAGEGEAVRVDLNRPMSEILQQLSQYPVSTRLSLNGTIIVGRDIAHAKLKERMDRGEGLPQYIKDHPIYYAGPAKTPEGYASGSLGPTTAGRMDSYVDQLQSQGGSMIMLAKGNRSQQVTDACKKHGGFYLGSIGGPAAVLAQGSIKRLECVEYPELGMEAIWKIEVEDFPAFILVDDKGNDFFQQIQSSQCGAALSNVAALRGGNMIRYFAGERRKRLIRSTPLCCYR	not soluble
MGSDKIHHHHHHMSNLKHTRHNSHNVRHHSTGNSMNYVSTGQGEAILLIHGLFGNLDNLKGLGQALEAHHQVIRVDVPNHGLSEHRQQMDYPSLAKAMVDLLDELELERVHIVGHSMGGKIAMATALAYPNRIISLVAADIAPVAYQPRHNAVFAALESLPLEGHTDRRFALAHLLAAGIDDATAQFLLKNLQRSGTGFRWKMNLTGLKSGYPNIIGWHNLPNEPQLVFAGPSLFIRGGDSNYVAAAHRDEILRQFPQAQAKTLEGCGHWLHAQKPTIFNRIVSEFIDKHTV	not soluble
MGSDKIHHHHHHMSPDVDIKALRCFLALAQELSFGRAAERMNLTQPSLSAQIRKLEDQVGHRLFERTTRAVHLSPTGKALIEQARTFVSQADAFAAHLSAWRERPDRRMVLGAPIYTFELPEHGALLSAIARELPDMSLRVDNGFANSLVEGLIKGSVDMAMVVAAAVPHDRYLADMAGEGAGELEMPDGLQRITLSDEQIGLAIPEEHPLASYDIVPPEALSGSVIAMLAPLHGRSLYRPISVWLSAAGATGFLPPEAHAFALERYCREYRIPAISIAQFRPRETGNVVYRPAGGLNVRTELAVLRSTRKQRSSIEERLWDLASSLGR	not soluble
MGSDKIHHHHHHMSQILLIHSSVHGYTQKICEYLQRQLIEQDQLVTVASLAEAPDLALFDKVYIGASIRHGKHRPALYQFIEDHRAELDNKPSGFFSVSLVARKPNKNTPQTNSYMQQFLSQSPWQPKLLQVFGGNLDYQGYGAMDRNIIRFIMWLTKGPTDPNTKVEFTDWQKVDEFAQQIIEA	not soluble
MGSDKIHHHHHHMSQNVYIGMTLKPWPILLDHYSMSYDGRVSVKSIGYGMHLFKYHGCIMLATRTKVDSTMAYDTITVSAPWWAKDKLHSFLEDTRGDISTEPKVNIFEETEWCRYGILKSSGFSELVLDEGFKQELMGEVDNFASRGESVVSKLTILLHGKTGTGKTGIARALAVEYHRDLYILNLSTVNDATIHKAIRKVPPGAMLLIEDCDCVKATVSRTAESNADNPPLTLGGVLNALDGIIPLDDCLVIMTTNHPDNLDPALIRKGRVDVSIEVPLISAKQVNEDYFERFGAVLNRTEPLLGCEVYELHRRANLRYGVCCKPV	not soluble
MGSDKIHHHHHHMSQPLLSLPIDVLNIISKAMPTTLFQQLATQCTEVSFLNTGISNVNIKLSCEDGDKVLRVNQPHSNWCDRSLEVECWQAAIVANIAPVLIWVSDDKQVYLSEFIHQPETDWSIFASMRSHLSLGQSTNQSISAVDAVPLLSALFCKLSTLPVPNKSITVTEQWQQYAYQLDSLTESQIDPQWHDAWQQLLRLNGLVRHWLSQLEACVLLPTFCHRDLTPHNLLLSGRAPHQLFCIDYEYAVASHPLFDLASVVASHKLSTIQVNQLIDNVIMQYCQAASLTDVAAAKAALPAAINCFWLFSAMWALLMAAKEPQKVTQYLQYFTYYLTLITC	not soluble
MGSDKIHHHHHHMSQPPLPAVCTQAASALLPVAIDYPAALALRQMAMQHDDYPKYLLAPEVSALLHYVPDLHRRMLLATLWNTGARINEALALTRGDFSLAPPYPFVQLATLKQRAEKAARTAGRMPSGSQPHRLVPLSDNQYVSELQMMVATLKIPLERRNRRTGRTEKARLWEITDRTVRTWIGEAVEAAAADDVTFSVPVTPHTFRHSYAMHMLYAGIPLKVLQALMGHKSVSSTEVYTKVFALDVAARHRVQFQMPGADAVAMLKGGS	not soluble
MGSDKIHHHHHHMSQQQPPAPVEGYQDMVHAAESQFDREQFKQLLMDMVNIPSPTGEEAELARYMADHMTANGLQGQTQYLDDQQANAIGKLPSRSKQGPELLLYASFDTHLGGSDEEERWAGQPLPSMLRPQARLEGDEISGLGAENPKAYAACVTTAATCIAKAGLELPGELTVGLGAGGMTALSRPGFSRRNIGHGAGVMFMLQRGYRPDYCVMCKPVYAVAWEEVGICNFTIRVKGAMGYVGVRHMMPQDQNPFPQVAKVIEALEAWFPTYTARHTSGLVAPQGGISAIEGGWPHKPIITTADVVLHVDIRPSPRTDPVQVKRELQAMLTELSQQHPDVVTELEATLAIPGATTSPDNWIIQSMIRAWEDVEQTPHEPFLNMSGYTDLSVIRQWGVPAARLGVPFRHQEPDPEDSLPMNRVHLDDCYRLIQVLIRSAIDTCSRPIEITQQYQ	not soluble
MGSDKIHHHHHHMSQTQQSASITSETQSFDVILVGGGMVGAATAIGLAQQGLHIAVIESFAPEAYSPEQALDVRVSAISVASEHLLEQLGALDSLLKMRNVPYLGLETWELDGCITQFHSSQIGASHLGHIVENRLVQLALWEQMQQWENIRLFCPERVAHFARGVDTVSVHLQSGCLLEAKLLVGADGANSHVRQWAGIGISGWDYAQSAMLINIQTTQGQQDVTWQQFTPSGPRSLLPLPGNHASLVWYDDANRIKQLMQLNNKQLAEQIRQHFPARLDSDFIVEAKGSFALTRRHAQVYVKPNVVILGDAAHTINPLAGQGVNLGFKDVEALLSVIKAALTEDKPWWSTEVLGKYQAKRYLDNQLMMTTMDVFYAGFSNDILPLKLLRNGALKLANINSPLKQTVLKYAMGLN	not soluble
MGSDKIHHHHHHMSQVNALQLTGISKSFDGFKALIDADFTACWGEVHALLGENGAGKSSLMNIAAGLYAPETGTLMLDDNPVQLQGPKDASRYRIGMVHQHFKLVKPFTVAQNILLALPEQPGEGSYRKRLRMLERDIVRKAEELGFAIDPSRVVDSLSVAEQQRVEILKVLLAGARILILDEPTAVLTDQEAERLLLTVQAFARQGAAVILVTHKMADVKRYADRVTVMRGGRTIQTLDPQRVSVEQLVQLTVGESVPVAAHHPAVPGEVRLQVKDLRSVGGSALNGVNMTLRAGQIYGIAGVGGNGQAELANALMGLPQATEGDIHLAPFGDLRNASAEQRRQLRIASIPADRYGAALAGSLSVAENFGIGNIHSGHYGSFWRLGYKRLKQDAQRAVESFDVQGVRSLDQKAALLSGGNAQKLVIAREFSRDPQLVLVHSPSRGLDVRATQAVHDRLRAARDAGAAVLLISEDLDEVLALADRIGVMNGGRIVAEFDHPADRQAIGKAMVSHD	not soluble
MGSDKIHHHHHHMSRFTYAYMMMTRLETLKNNLQAAFGQDLALTESLGELTLEVAAEQWFSACTKLRTDPALRFESCIDLCGVDYLTWGNGTQPEEKTGPVTHGRYAVVVHLLSIEHNWRLRVRTWAPDDEFPMVSSLLECWPGVNWFEREAFDLYGIVFEGHPDLRRILTDYGFIGHPFRKDFPLSGTVEMRYDPEQKRVIYQPVTIDPREITPRVVREGSYGMGR	not soluble
MGSDKIHHHHHHMSRKDVVAGIRNEEGISTVLDLLKQSFGERFQTGQSFREQHAHTTTYLPAQLPDGVVFVESAEDVKTVVRTCAQHKVPMVPFGVGSSLEGQVNAAHGGISIDFTRMDKVLEVNAEDLDCTVQPGVTREALNTYLRDTGLFFPIDPGANASIGGMASTRASGTNAVRYGTMKDNVMALTVVTANGEEIRTAHRARKSSAGYDLTRLFVGAEGTLGVITSITLKLQGIPEKIGGGVCAFADVKSACDAVIMTIQMGIPVARIELLDAMQVRACNAYSNLSLPERPTLFLEFHGTEQTVALQAQQFAAIAEEYGAEDLRFTSDPQERAQLWKARHNAYWAGRALAPELAGLSTDVCVPISKLAECVAETQADIAETGLLAPIVGHVGDGNFHLLILFDDKDAENVDKVEAFMARLNERALAMDGTCTGEHGVGQGKMSYLEAELGGALDVMRQVKRGLDPDNLFNPGKIFRL	not soluble
MGSDKIHHHHHHMSRTQEKHNRSVSKDVLVVGGGTSGFVAAIAAARNGASVLLLEQRDHLGGTHSGGMVMMIRSMRHMKAPANMEQKKIMMTGYESSFDDEQVVRSIVQEYINRMLEIGSAWGRKDEATARQMFDPEIAKWVIQDMVAEAGVEVWLNTQATDVIMEGNALKGVVIESLRDRVEVHAGITIDTTGDGDIAAAAGAAFEFGSPEDGKCQPASLYFAVGGVQLDKTIAYMRDHANEFGEEYVKTMVGLKEQNKPITMFPFKEKIREALKNGDYPIPYGVETVNPDTLSYIVRPMFRNGKFRYDVTYHNMDMAYNFDATDRVELTKATLAMRDLANKMAKFYRKYVPGYEDSYLSYTAQSVGIRDSRRIVCDYTLTREDVLAGQVFPDGIGRYGSLMDVHDKSGKKSLSLVEVGGHGWFHVPFRSLLPKGIENLMVAGRCISADYDAQGSVRSQAASMVTGQATGTAAALAVQQKRKLRELDVSALQEVLKAQNQVI	not soluble
MGSDKIHHHHHHMSSASLLWCHSGVSTVRFGERIFTLVAGDLLFAPEEAQVADDSQGLVLNIRFETLNIMGPARRIHLGHVWNDRLTFEYSRSLFGKETLSPDIARLFTDRVPTPPLPAPRKARAVAQVLVSNPADQTSLEEFAEIQGVSARTLQRQFLKSTGYSFSEWRAAQRVCVAASLLAHDFSISVVANLVGFAATSSLTRAFRRHTGATPSTFTTGQIGMGSAGHPPRIPATTTFAEAHQDQQLWIYSGTATVTTPGYCRFMGQGDMVTIPAGTQTRIDVAAGSIAFPVPVGLDEWGMDLTRVVAVNNQQPKPLTILEQSEWSKLSEELLNTPVPVQM	not soluble
MGSDKIHHHHHHMSSINYAEKIPNNVNLSEDRKLQRALESWQPHYIDWWKEMGPEGTSTSEIYLRTAISAEPDGWAQFGHVKMEDYRWGIFLAPPEKDRKVNFGAHKGEAAWQEVPGEYRSMLRRLITVQGDTEPASVEQQRLLGKCCPSLYDLRNLFQVNVEEGRHLWAMVYLLHAHFGKDGREEAEEMLARRSGDADKPRILGAFNEKTADWLAFFMFTFITDRDGKYQLCALAESGFDPLSRSCRFMLTEEAHHMFVGESGVGRIIERACQVMKENRTDDVRKFGVIDLPTIQRYLNFHYSVTSDLYGAEVSTNAATSYNMGIKGRYEETKIGDDHQLENTTYSVLHPVNGGFQAIEVPALNALNERLRLDWAEDVAKGVERWNKIIAKHGIDFKLTLPHLAFNRAIGHFSDIAVDPSGKVISTEEFARRRDEWLPSESDLAYVLSLMGSAVTKPGQFANWIAPPARGINNQAVDFDYVRFA	not soluble
MGSDKIHHHHHHMSTKPFVYQDPFPLGKDETKYRKIEGSEKHVTVEQFAGKEVLRVCPEALSILANEAMRDVSFLLRPEHNESVAKILRDPEASMNDKGVALAFLRNAEISANFELPICQDTGTATVIAKKGQQVWTGGKDEEYLSKGVYKTYTEENLRYSQTVALNMYDEINTGTNLPAQVEIQAVDGDAYKFLFMAKGGGSANKTMLFQETKALLTPEKLEKFLVDKMKYLGTAACPPYHIAVVVGGCSADQCMKTVKLASAKYLDALPTQGNEHGQAFRDVELEEKLLQAAYKLGIGAQFGGKYFAHDVRVIRLPRHGASCPVGMAVSCSADRNIKAKITRDGLFVEELDRNPGRLIPEQYRGKHEHGVKIDLNRPMKEILAELSKYPVATPLLLNGTIVVGRDIAHAKFKEIIDAGKPVPEYLLNHPIYYAGPAKTPAGKPSGSFGPTTAGRMDSYVDLLQSKGASMIMIAKGNRSQQVTDACQKYGGFYLGSIGGPAAVLAEENIKKVECIDFPELGMEAVWKIEVENFPAFILVDDKGNDFFKQLGL	not soluble
